The results in this text go back to patent CN109265548A (UNIV SOUTHEAST, dated 2019).

In assay [1] the target is T1, PD-L1(鼠) (鼠 (murine), UniProt Q9EP73 19-239, limits assumed).
T1 construct: also called 鼠源的PD-L1
Briefly: ELISA, antigen coated 0.5 μg per well, detection with rabbit anti-HA and HRP goat anti-rabbit.

Assay [2] has as its target T2, PD-L2(人) (human, UniProt Q9BQ51 20-220, limits assumed).
T2 construct: also called 人PD-L2
T2 sequence (looked up): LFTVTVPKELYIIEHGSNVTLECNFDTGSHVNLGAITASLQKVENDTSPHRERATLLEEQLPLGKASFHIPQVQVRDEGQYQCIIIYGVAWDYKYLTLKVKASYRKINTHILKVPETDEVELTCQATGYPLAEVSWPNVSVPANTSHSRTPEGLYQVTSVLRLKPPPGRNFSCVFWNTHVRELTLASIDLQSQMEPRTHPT
The assay is described as above.

T1 sequence (Q9EP73 19-239 limits assumed): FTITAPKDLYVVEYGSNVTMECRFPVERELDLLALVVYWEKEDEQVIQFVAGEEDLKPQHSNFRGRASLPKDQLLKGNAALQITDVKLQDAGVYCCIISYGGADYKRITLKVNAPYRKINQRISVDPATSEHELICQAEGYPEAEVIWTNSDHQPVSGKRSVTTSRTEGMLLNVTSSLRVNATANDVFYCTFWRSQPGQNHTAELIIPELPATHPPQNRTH

B1: 抗PD-L1Nb15 (VHH)
VHH: QVQLVESGGGSVQAGGALRLSCAASGYTSTSNCMGWFRQAPGKEREGVAAIYTGGGSTYYADSVKGRFTISQDNAKNTVYLQMNSLKPEDTAMYYCAAGDLDPAEYSDYDPTVFNYWGQGTLVTVSS
notes: Expressed from pET32a in E. coli BL21(DE3), purified on Ni-IDA and detected in ELISA with an anti-HA antibody; the vector-derived tags are not described; also called antiPD-L1Nb15; 抗PD-L1-VHH15
For the molecule B1, the binding result in assay [1] and in assay [2] was “no binding (tested: 10μg/mL)” each time.
